Test results published in patent US20140010815A1 (JOSAI UNIVERSITY, published 2014).
No end group written: not given here.

Target: T1, conjugate of a peptide consisting of an amino acid sequence represented by SEQ ID NO: 1 and KLH (also: conjugated to KLH with glutaraldehyde, attachment site not given here)
T1 construct: Synthetic peptide (Fmoc solid phase) chemically conjugated to KLH; used as the immunogen and as the coating antigen in the antibody titer ELISA; also called antigenic substance; not shown: KLH carrier protein (SIGMA), coupled by glutaraldehyde
T1 peptide: SSVLYGGPPSAA
Test: antibody titer ELISA, plate coated with the peptide-KLH conjugate, hybridoma culture supernatant, fluorescence read-out
Description: A buffer solution containing the above-mentioned antigenic substance (5 mg) (Baicarbonate buffer: 100 mM NaHCO₃—NaOH, pH 9.2 to 9.5, the concentration of the peptide: 1 μg/mL) was added to a 96 well flat bottom plate in an amount of 50 μL per well, and allowed to stand for coating at room temperature for 2 hours. The plate was washed 3 times with wash buffer (PBST), and then blocking buffer (3% skim milk 1% BSA, PBS) was added in an amount of 200 to 250 μL/well to react at 4° C. for one full day, and then washed 3 times. Then the culture supernatant of hybridoma was added in an amount of 100 μL/well, which was allowed to react at 37° C. for 4 hours or at 4° C. for one full day. After the plate was washed 3 times, biotin-labeled anti-mouse IgG (SIGMA) diluted 10000 times with dilution buffer (10 mM Tris-HCl (pH 8.0), 0.9% (W/V) NaCl, 0.05% (W/V) Tween 20) was added in an amount of 50 μL/well, which was allowed to react at room temperature for 2 hours. […] Then washing was performed 6 times, and fluorescent substrate buffer (Attophos substrate buffer, Roche Diagnostics K.K.) was added in an amount of 50 μL/well, and the plate was shaded to allow fluorescence to develop. Fluorescence intensity was measured in CytoFluorII (PerSeptive Biosystems).

binding result: binds
B1: monoclonal antibody (SSVmAb) of Example 1, produced by Mouse-Mouse hybridoma SSV-C 93-3 (antibody, IgG1, V domains shown)
VH: EIQLQQSGAELVKPGASVKISCKASGYSFTGYNMNWVKQSHGKSLEWIGNINPYYGSTSYNQKFKGKATLTVDKSSSTAYMQLNSLTSEDSAVYYCARSPYYSNYWRYFDYWGQGTTLTVSS
VL: QIVLSQSPAILSASPGEKVTMTCRASSSVSYMHWYQQKPGSSPKPWIYATSNLASGVPARFSGSGSGTSYSLTISRVEAEDAATYYCQQWSSNPWTFGGGTKLEIK
notes: Mouse monoclonal antibody purified from hybridoma culture supernatant; light chain amplified with a mouse kappa constant region primer
